The values below come from publication PMC10543426, “The PALB2 DNA-binding domain is an intrinsically disordered recombinase” (Research Square, 2023).

A word on the Kd: it is the concentration at which binding is half-saturated. The stoichiometry N is the number of molecules, sites or subunits per partner or assembly.

Series [1] deals with PALB2 coiled-coil (Homo sapiens) (UniProt Q86YC2). The series can be described thus: NMR titration. Conditions: cited from earlier work.
Series [2] deals with the molecule itself. The series can be described thus: AUC; sedimentation velocity with Cy3-labelled ssDNA (Cy3-dT50 or Cy3-dT25), DNA:protein molar ratios 1:2 and 1:4 (4 and 8 μM protein), 0.1 M NaCl, 10% glycerol, 1 mM TCEP, 2 mM CHAPS, 25 mM HEPES pH 7.5, 20°C, absorbance at 550 nm; dimers to tetramer.
Series [3] concerns the molecule itself. Description: AUC; sedimentation velocity, protein alone; 1 M NaCl, 10% glycerol, 1 mM TCEP, 2 mM CHAPS, 25 mM HEPES pH 7.5; 30,000 rpm, 20°C, absorbance at 280 nm; relatively high protein concentration.
Series [4] addresses T1, PALB2-DBD (Homo sapiens, UniProt Q86YC2 1-195, I195W).
T1 sequence: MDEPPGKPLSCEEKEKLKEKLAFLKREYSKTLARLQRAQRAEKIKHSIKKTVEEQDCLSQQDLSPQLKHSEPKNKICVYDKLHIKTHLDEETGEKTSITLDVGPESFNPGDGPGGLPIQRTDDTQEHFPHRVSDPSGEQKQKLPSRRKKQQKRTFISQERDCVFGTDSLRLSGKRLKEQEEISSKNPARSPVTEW
The series can be described thus: smFRET; mean FRET 0.18 free, 0.45 and 0.79 bound; AUC of DNA complexes: 0.1 M NaCl, 20 C; smFRET, EPR and CD buffers not in the material. Conditions: protein: recombinant; tags: 6xHis-SUMO and MBP, cleaved by Ulp1/TEV; chain copies: 2; label: 5' Cy3, Cy5 at position 50; single strand.

Series [5] has as its target T1, PALB2-DBD. The series can be described thus: analytical ultracentrifugation; DNA:protein 1:2 and 1:4; 0.1 M NaCl; AUC of DNA complexes: 0.1 M NaCl, 20 C; smFRET, EPR and CD buffers not in the material. Conditions: protein: recombinant; tags: 6xHis-SUMO and MBP, cleaved by Ulp1/TEV; chain copies: 2; label: Cy3; single strand.
The target of series [6] is T1, PALB2-DBD. Description: analytical ultracentrifugation; DNA:protein 1:2 and 1:4; no free DNA peak; 0.1 M NaCl; AUC of DNA complexes: 0.1 M NaCl, 20 C; smFRET, EPR and CD buffers not in the material. Conditions: protein: recombinant; tags: 6xHis-SUMO and MBP, cleaved by Ulp1/TEV; chain copies: 2; label: 5' Cy3; single strand.

With PALB2 coiled-coil (from UniProt Q86YC2), in series [1], the Kd was 80 µM.

B1: PALB2 DNA-binding domain (PALB2-DBD), N-terminal fragment 1-195 I195W (domain or fragment, human, UniProt Q86YC2 1-195, looked up)
chain: T1 sequence
notes: Partner and Localizer of BRCA2 (PALB2), human, amino acids 1-195; the last amino acid mutated to tryptophan to increase absorption at 280 nm; SUMO cleaved with Ulp1 and MBP with TEV protease; also called PLAB2-DBD; source: E. coli BL21*, purified (amylose resin, heparin, gel filtration); not shown: 6×His-SUMO, N-terminal, cleaved; MBP, C-terminal, cleaved
As to B1, the “stoichiometry N” value in series [2] turned out to be 4; in series [3], 2.

B2: Cy3-dT50-Cy5 (ssDNA)
DNA: TTTTTTTTTTTTTTTTTTTTTTTTTTTTTTTTTTTTTTTTTTTTTTTTTT
For B2, the binding result in series [4] is listed as “binds”.

B3: Cy3-dT50 (ssDNA)
DNA: B2 DNA
B3: the binding result in series [5] is “binds”.

B4: Cy3-dT25 (25mer) (ssDNA)
DNA: TGGCGACGGCAGCGAGGCTCTCTAC
With B4, the binding result in series [6] is reported as “binds”.
